{"source": "patent US20200131496A1", "about": "(REGENTS OF THE UNIVERSITY OF MINNESOTA, published 2020)", "key": {"[1]": {"biological_target": "the molecule itself", "assay": "ion exchange and size-exclusion chromatography; self-association, RNA-mediated"}, "[2]": {"biological_target": "the molecule itself", "assay": "size-exclusion chromatography; self-association, RNA-mediated"}, "[3]": {"biological_target": "the molecule itself", "assay": "size-exclusion chromatography (self-association)"}}}
{"protein": "His-tagged mCherry(1-232)-3×Ala linker-A3H-HapII(1-183), wild-type (enzyme, range 1-232; Purified from E. coli with RNase A treatment; also called wild-type mCherry-A3H; mCherry-A3Hwt; not shown: N-terminal His tag from the pRSFDuet-1 vector and engineered HRV 3C protease site upstream of mCherry; mCherry residues 1-232, amplified from pRSETB-mCherry (Shaner et al. 2004)) AAAMALLTAETFRLQFNNKRRLRRPYYPRKALLCYQLTPQNGSTPTRGYFENKKKCHAEICFINEIKSMGLDETQCYQVTCYLTWSPCSSCAWELVDFIKAHDHLNLRIFASRLYYHWCKPQQDGLRLLCGSQVPVEVMGFPEFADCWENFVDHEKPLSFNPYKMLEELDKNSRAIKRRLDRIKQS", "values": [{"measurement": "binding result", "setting": "[1]", "result": "binds"}]}
{"protein": "mCherry-A3H-E56A (enzyme, range 1-232; Catalytic mutant; also called E56A catalytic mutant; not shown: N-terminal His tag from the pRSFDuet-1 vector and HRV 3C protease site; mCherry residues 1-232, amplified from pRSETB-mCherry) AAAMALLTAETFRLQFNNKRRLRRPYYPRKALLCYQLTPQNGSTPTRGYFENKKKCHAAICFINEIKSMGLDETQCYQVTCYLTWSPCSSCAWELVDFIKAHDHLNLRIFASRLYYHWCKPQQDGLRLLCGSQVPVEVMGFPEFADCWENFVDHEKPLSFNPYKMLEELDKNSRAIKRRLDRIKQS", "values": [{"measurement": "binding result", "setting": "[2]", "result": "binds"}]}
{"protein": "mCherry-A3H-E56A-K52E (enzyme, range 1-232; Used in size-exclusion chromatography and in the second crystal structure (6BBO); also called mCherry-A3H-K52E-E56A; A3H-K52E-E56A; not shown: N-terminal His tag from the pRSFDuet-1 vector and HRV 3C protease site; crystallized by similar met; mCherry residues 1-232, amplified from pRSETB-mCherry) AAAMALLTAETFRLQFNNKRRLRRPYYPRKALLCYQLTPQNGSTPTRGYFENKKECHAAICFINEIKSMGLDETQCYQVTCYLTWSPCSSCAWELVDFIKAHDHLNLRIFASRLYYHWCKPQQDGLRLLCGSQVPVEVMGFPEFADCWENFVDHEKPLSFNPYKMLEELDKNSRAIKRRLDRIKQS", "values": [{"measurement": "binding result", "setting": "[2]", "result": "binds"}]}
{"protein": "mCherry-A3H-K52E (enzyme, range 1-232; His tag present in size-exclusion chromatography; Crystal holds two A3H monomers bridged by duplex RNA; also called mCherry-K52E; pdb 6BOB; not shown: N-terminal His tag from the pRSFDuet-1 vector and HRV 3C protease site; tag removed with 3C proteas; mCherry residues 1-232, amplified from pRSETB-mCherry) AAAMALLTAETFRLQFNNKRRLRRPYYPRKALLCYQLTPQNGSTPTRGYFENKKECHAEICFINEIKSMGLDETQCYQVTCYLTWSPCSSCAWELVDFIKAHDHLNLRIFASRLYYHWCKPQQDGLRLLCGSQVPVEVMGFPEFADCWENFVDHEKPLSFNPYKMLEELDKNSRAIKRRLDRIKQS", "values": [{"measurement": "binding result", "setting": "[2]", "result": "binds"}]}
{"protein": "mCherry-A3H-E56A-W115A-R175/6E (enzyme, range 1-232; E56A added to prevent E. coli toxicity; preparation lacks RNA; also called W115A/R175/6E with E56A; not shown: N-terminal His tag from the pRSFDuet-1 vector and HRV 3C protease site; mCherry residues 1-232, amplified from pRSETB-mCherry) AAAMALLTAETFRLQFNNKRRLRRPYYPRKALLCYQLTPQNGSTPTRGYFENKKKCHAAICFINEIKSMGLDETQCYQVTCYLTWSPCSSCAWELVDFIKAHDHLNLRIFASRLYYHACKPQQDGLRLLCGSQVPVEVMGFPEFADCWENFVDHEKPLSFNPYKMLEELDKNSRAIKEELDRIKQS", "values": [{"measurement": "binding result", "setting": "[3]", "result": "no binding"}]}
